From patent US20110105397A1, “METHOD FOR TREATING HEART FAILURE WITH STRESSCOPIN-LIKE PEPTIDES” (priority 2009, published 2011)
Where no end group is shown, it is not given here. The star is where a group is joined. Succinimide(1-Et,3-yl) = CCN1C(=O)CC(*)C1=O

T1: human corticotrophin releasing hormone receptor type 2 (CRHR2) (human, UniProt Q13324 1-411)
T1 sequence (looked up): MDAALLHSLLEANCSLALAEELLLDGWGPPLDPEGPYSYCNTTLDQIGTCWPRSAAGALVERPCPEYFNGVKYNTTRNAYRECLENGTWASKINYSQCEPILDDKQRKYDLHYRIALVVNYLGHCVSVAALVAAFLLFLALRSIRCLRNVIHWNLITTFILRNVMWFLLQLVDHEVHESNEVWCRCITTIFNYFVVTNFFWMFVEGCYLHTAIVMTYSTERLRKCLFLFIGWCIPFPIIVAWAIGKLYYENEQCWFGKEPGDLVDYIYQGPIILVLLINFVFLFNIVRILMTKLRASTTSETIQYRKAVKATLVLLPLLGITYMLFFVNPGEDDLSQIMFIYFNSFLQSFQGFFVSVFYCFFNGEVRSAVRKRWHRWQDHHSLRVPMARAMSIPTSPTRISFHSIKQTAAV

B1: Cys-variant of stresscopin peptide with N-Ethylsuccinimide (NES) reactive group SEQ ID NO: 54 (peptide)
peptide: TKFTLSLDVPTNIMNC(Succinimide(1-Et,3-yl))LFNIAKAKNLRAQAAANAHLMAQI-NH2
modifications: N-terminus assumed
SMILES: CC[C@H](C)[C@H](NC(=O)[C@H](CCC(N)=O)NC(=O)[C@H](C)NC(=O)[C@H](CCSC)NC(=O)[C@H](CC(C)C)NC(=O)[C@H](Cc1c[nH]cn1)NC(=O)[C@H](C)NC(=O)[C@H](CC(N)=O)NC(=O)[C@H](C)NC(=O)[C@H](C)NC(=O)[C@H](C)NC(=O)[C@H](CCC(N)=O)NC(=O)[C@H](C)NC(=O)[C@H](CCCNC(=N)N)NC(=O)[C@H](CC(C)C)NC(=O)[C@H](CC(N)=O)NC(=O)[C@H](CCCCN)NC(=O)[C@H](C)NC(=O)[C@H](CCCCN)NC(=O)[C@H](C)NC(=O)[C@@H](NC(=O)[C@H](CC(N)=O)NC(=O)[C@H](Cc1ccccc1)NC(=O)[C@H](CC(C)C)NC(=O)[C@H](CSC1CC(=O)N(CC)C1=O)NC(=O)[C@H](CC(N)=O)NC(=O)[C@H](CCSC)NC(=O)[C@@H](NC(=O)[C@H](CC(N)=O)NC(=O)[C@@H](NC(=O)[C@@H]1CCCN1C(=O)[C@@H](NC(=O)[C@H](CC(=O)O)NC(=O)[C@H](CC(C)C)NC(=O)[C@H](CO)NC(=O)[C@H](CC(C)C)NC(=O)[C@@H](NC(=O)[C@H](Cc1ccccc1)NC(=O)[C@H](CCCCN)NC(=O)[C@@H](N)[C@@H](C)O)[C@@H](C)O)C(C)C)[C@@H](C)O)[C@@H](C)CC)[C@@H](C)CC)C(N)=O

Target: T1, human corticotrophin releasing hormone …
Experiment: cell-based or functional assay

| Binder | Log DR [log10] | pA50 |
| --- | --- | --- |
| B1 | -0.08 | 9.55 -log10(M) |
| CKFTLSLDVPTNIMNLLFNIAKAKNLRAQAAANAHLMAQI-NH2 [Cys-variant stresscopin-like peptide SEQ ID NO: 2] | 0.72 | 8.97 -log10(M) |
| CKFTLSLDVPTNIMNLLFNIAKAKNLRAQAAANAHLMAQI (NES-PEG (about 20 kDa) on Cys 1; C-terminal amide (-NH2)) [Pegylated Cys-variant stresscopin-like peptide with NES linker and PEG about 20 kDa SEQ ID NO: 55] | ~1.61 | ~7.93 -log10(M) |
| TCFTLSLDVPTNIMNLLFNIAKAKNLRAQAAANAHLMAQI-NH2 [Cys-variant stresscopin-like peptide SEQ ID NO: 3] | 0.72 | 8.97 -log10(M) |
| TCFTLSLDVPTNIMNLLFNIAKAKNLRAQAAANAHLMAQI (NES-PEG (about 20 kDa) on Cys 2; C-terminal amide (-NH2)) [Pegylated Cys-variant stresscopin-like peptide with NES linker and PEG about 20 kDa SEQ ID NO: 56] | ~2.34 | ~7.2 -log10(M) |
| TKCTLSLDVPTNIMNLLFNIAKAKNLRAQAAANAHLMAQI-NH2 [Cys-variant stresscopin-like peptide SEQ ID NO: 4] | 1.03 | 8.65 -log10(M) |
| TKCTLSLDVPTNIMNLLFNIAKAKNLRAQAAANAHLMAQI (NES-PEG (about 20 kDa) on Cys 3; C-terminal amide (-NH2)) [Pegylated Cys-variant stresscopin-like peptide with NES linker and PEG about 20 kDa SEQ ID NO: 57] | ~1.9 | ~7.64 -log10(M) |
| TKFCLSLDVPTNIMNLLFNIAKAKNLRAQAAANAHLMAQI-NH2 [Cys-variant stresscopin-like peptide SEQ ID NO: 5] | 0.76 | 8.93 -log10(M) |
| TKFCLSLDVPTNIMNLLFNIAKAKNLRAQAAANAHLMAQI (NES-PEG (about 20 kDa) on Cys 4; C-terminal amide (-NH2)) [Pegylated Cys-variant stresscopin-like peptide with NES linker and PEG about 20 kDa SEQ ID NO: 58] | ~2.4 | ~7.14 -log10(M) |
| TKFTCSLDVPTNIMNLLFNIAKAKNLRAQAAANAHLMAQI-NH2 [Cys-variant stresscopin-like peptide SEQ ID NO: 6] | 0.61 | 9.07 -log10(M) |
| TKFTCSLDVPTNIMNLLFNIAKAKNLRAQAAANAHLMAQI (NES-PEG (about 20 kDa) on Cys 5; C-terminal amide (-NH2)) [Pegylated Cys-variant stresscopin-like peptide with NES linker and PEG about 20 kDa SEQ ID NO: 59] | ~2.32 | ~7.22 -log10(M) |
| TKFTLCLDVPTNIMNLLFNIAKAKNLRAQAAANAHLMAQI-NH2 [Cys-variant stresscopin-like peptide SEQ ID NO: 7] | 2.08 | 7.6 -log10(M) |
| TKFTLCLDVPTNIMNLLFNIAKAKNLRAQAAANAHLMAQI (NES-PEG (about 20 kDa) on Cys 6; C-terminal amide (-NH2)) [Pegylated Cys-variant stresscopin-like peptide with NES linker and PEG about 20 kDa SEQ ID NO: 60] | > 3.22 | ~6.32 -log10(M) |
| TKFTLSCDVPTNIMNLLFNIAKAKNLRAQAAANAHLMAQI-NH2 [Cys-variant stresscopin-like peptide SEQ ID NO: 8] | 2.86 | ~6.82 -log10(M) |
| TKFTLSCDVPTNIMNLLFNIAKAKNLRAQAAANAHLMAQI (NES-PEG (about 20 kDa) on Cys 7; C-terminal amide (-NH2)) [Pegylated Cys-variant stresscopin-like peptide with NES linker and PEG about 20 kDa SEQ ID NO: 61] | > 3.32 | ~6.22 -log10(M) |
| TKFTLSLCVPTNIMNLLFNIAKAKNLRAQAAANAHLMAQI-NH2 [Cys-variant stresscopin-like peptide SEQ ID NO: 9] | 1.89 | 7.8 -log10(M) |
| TKFTLSLCVPTNIMNLLFNIAKAKNLRAQAAANAHLMAQI (NES-PEG (about 20 kDa) on Cys 8; C-terminal amide (-NH2)) [Pegylated Cys-variant stresscopin-like peptide with NES linker and PEG about 20 kDa SEQ ID NO: 62] | > 3.48 | ~6.06 -log10(M) |
| TKFTLSLDCPTNIMNLLFNIAKAKNLRAQAAANAHLMAQI-NH2 [Cys-variant stresscopin-like peptide SEQ ID NO: 10] | 1.3 | 8.28 -log10(M) |
| TKFTLSLDCPTNIMNLLFNIAKAKNLRAQAAANAHLMAQI (NES-PEG (about 20 kDa) on Cys 9; C-terminal amide (-NH2)) [Pegylated Cys-variant stresscopin-like peptide with NES linker and PEG about 20 kDa SEQ ID NO: 63] | ~2.12 | ~7.45 -log10(M) |
| TKFTLSLDVCTNIMNLLFNIAKAKNLRAQAAANAHLMAQI-NH2 [Cys-variant stresscopin-like peptide SEQ ID NO: 11] | 0.82 | 8.76 -log10(M) |
| TKFTLSLDVCTNIMNLLFNIAKAKNLRAQAAANAHLMAQI (NES-PEG (about 20 kDa) on Cys 10; C-terminal amide (-NH2)) [Pegylated Cys-variant stresscopin-like peptide with NES linker and PEG about 20 kDa SEQ ID NO: 64] | ~2.59 | ~6.98 -log10(M) |
| TKFTLSLDVPCNIMNLLFNIAKAKNLRAQAAANAHLMAQI-NH2 [Cys-variant stresscopin-like peptide SEQ ID NO: 12] | 1.72 | 7.86 -log10(M) |
| TKFTLSLDVPCNIMNLLFNIAKAKNLRAQAAANAHLMAQI (NES-PEG (about 20 kDa) on Cys 11; C-terminal amide (-NH2)) [Pegylated Cys-variant stresscopin-like peptide with NES linker and PEG about 20 kDa SEQ ID NO: 65] | ~2.75 | ~6.82 -log10(M) |
| TKFTLSLDVPTCIMNLLFNIAKAKNLRAQAAANAHLMAQI-NH2 [Cys-variant stresscopin-like peptide SEQ ID NO: 13] | -0.01 | 9.59 -log10(M) |
| TKFTLSLDVPTCIMNLLFNIAKAKNLRAQAAANAHLMAQI (NES-PEG (about 20 kDa) on Cys 12; C-terminal amide (-NH2)) [Pegylated Cys-variant stresscopin-like peptide with NES linker and PEG about 20 kDa SEQ ID NO: 66] | 1.26 | 8.31 -log10(M) |
| TKFTLSLDVPTNCMNLLFNIAKAKNLRAQAAANAHLMAQI-NH2 [Cys-variant stresscopin-like peptide SEQ ID NO: 14] | > 2 | ~7.34 -log10(M) |
| TKFTLSLDVPTNCMNLLFNIAKAKNLRAQAAANAHLMAQI (NES-PEG (about 20 kDa) on Cys 13; C-terminal amide (-NH2)) [Pegylated Cys-variant stresscopin-like peptide with NES linker and PEG about 20 kDa SEQ ID NO: 67] | > 3 | ~6.35 -log10(M) |
| TKFTLSLDVPTNICNLLFNIAKAKNLRAQAAANAHLMAQI-NH2 [Cys-variant stresscopin-like peptide SEQ ID NO: 15] | 0.9 | 8.68 -log10(M) |
| TKFTLSLDVPTNICNLLFNIAKAKNLRAQAAANAHLMAQI (NES-PEG (about 20 kDa) on Cys 14; C-terminal amide (-NH2)) [Pegylated Cys-variant stresscopin-like peptide with NES linker and PEG about 20 kDa SEQ ID NO: 68] | ~2.61 | ~6.96 -log10(M) |
| TKFTLSLDVPTNIMCLLFNIAKAKNLRAQAAANAHLMAQI-NH2 [Cys-variant stresscopin-like peptide SEQ ID NO: 16] | 0.76 | 8.93 -log10(M) |
